The chains are these.
B1: glmS ribozyme (parent)
chain: AUAAAAGCGCCAGAACUACAGAAAUGUAGUUGACGAGGAGGAGGUUUAUCGAAUUUUCGGCGGAUGCCUCCAAA

Holding throughout (details): with glucosamine-6-phosphate
In data set [1] the parent is B1. The data set can be described thus: self-cleavage kobs at 40 uM GlcN6P; higher = faster cleavage; RNA array. An outline of the steps: (§1)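 E. coli RNA polymerase transcribed barcoded ribozyme variants in situ on sequenced MiSeq chips, which were tracked via a hybridised Cy3 probe at 37 °C. Tiles were imaged over ~14 h after glucosamine-6-phosphate (40 μM to 10 mM) in HEPES/KCl/Mg(OAc)2 buffer was flowed in. Normalised per-tile medians were fit to one- or two-exponential decays for kobs, and kcat and KM came from weighted Michaelis–Menten fits.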

Data set [2] covers variants of B1. As to the kind of experiment: self-cleavage kobs at 160 uM GlcN6P; higher = faster cleavage; RNA array. Summed up:
as §1

Data set [3] covers variants of B1. As to the kind of experiment: self-cleavage kobs at 640 uM GlcN6P; higher = faster cleavage; RNA array. An outline of the steps: as §1
In data set [4] the parent is B1. The data set can be described thus: self-cleavage kobs at 2500 uM GlcN6P; higher = faster cleavage; RNA array. An outline of the steps:
as §1

The variants in data set [5] derive from B1. As to the kind of experiment: self-cleavage kobs at 10000 uM GlcN6P; higher = faster cleavage; RNA array. Summed up:
as §1

± gives the standard error. Fewer inactive variants are shown than the library holds.

With G44A U69A, the “self-cleavage kobs at 40 uM GlcN6P” value in the data set with glucosamine-6-phosphate [1] was less than 1e-05 s⁻¹. In addition, in the data set with glucosamine-6-phosphate [2], the “self-cleavage kobs at 160 uM GlcN6P” value is less than 1e-05 s⁻¹. In addition, the “self-cleavage kobs at 640 uM GlcN6P” value with glucosamine-6-phosphate [3] is less than 1e-05 s⁻¹. For the same variant, the “self-cleavage kobs at 2500 uM GlcN6P” value in the data set with glucosamine-6-phosphate [4] was less than 1e-05 s⁻¹. The “self-cleavage kobs at 10000 uM GlcN6P” value with glucosamine-6-phosphate [5] was less than 1e-05 s⁻¹.

Turning to U55C U56A, the “self-cleavage kobs at 40 uM GlcN6P” value with glucosamine-6-phosphate [1] was found to be 0.000256 ± 4.6e-05 s⁻¹. Also, the “self-cleavage kobs at 2500 uM GlcN6P” value with glucosamine-6-phosphate [4] came to 0.0131 ± 0.0031 s⁻¹. Further, the “self-cleavage kobs at 10000 uM GlcN6P” value with glucosamine-6-phosphate [5] came out at 0.0148 ± 0.0032 s⁻¹.

With G37C G44U, the “self-cleavage kobs at 40 uM GlcN6P” value in the data set with glucosamine-6-phosphate [1] was less than 1e-05 s⁻¹. Also, in the data set with glucosamine-6-phosphate [3], the “self-cleavage kobs at 640 uM GlcN6P” value is less than 1e-05 s⁻¹.

For U30A G38A U65C C70G, the “self-cleavage kobs at 40 uM GlcN6P” value with glucosamine-6-phosphate [1] is less than 1e-05 s⁻¹. In addition, the “self-cleavage kobs at 640 uM GlcN6P” value in the data set with glucosamine-6-phosphate [3] was less than 1e-05 s⁻¹. The “self-cleavage kobs at 10000 uM GlcN6P” value with glucosamine-6-phosphate [5] is less than 1e-05 s⁻¹.

As for G35C A48G A52C C70G, the “self-cleavage kobs at 40 uM GlcN6P” value with glucosamine-6-phosphate [1] was less than 1e-05 s⁻¹.

As to A6C C50G C61G, in the data set with glucosamine-6-phosphate [1], the “self-cleavage kobs at 40 uM GlcN6P” value worked out at 0.000119 ± 3.4e-05 s⁻¹. In the data set with glucosamine-6-phosphate [2], the “self-cleavage kobs at 160 uM GlcN6P” value was 0.000251 ± 7.8e-05 s⁻¹. Moreover, in the data set with glucosamine-6-phosphate [3], the “self-cleavage kobs at 640 uM GlcN6P” value was found to be 0.00102 ± 0.00025 s⁻¹. Further, the “self-cleavage kobs at 2500 uM GlcN6P” value with glucosamine-6-phosphate [4] worked out at 0.000289 ± 0.0001 s⁻¹. The “self-cleavage kobs at 10000 uM GlcN6P” value with glucosamine-6-phosphate [5] is 0.000343 ± 6.1e-05 s⁻¹.

In the case of A6U G9C, the “self-cleavage kobs at 40 uM GlcN6P” value with glucosamine-6-phosphate [1] was less than 1e-05 s⁻¹. The “self-cleavage kobs at 640 uM GlcN6P” value with glucosamine-6-phosphate [3] is less than 1e-05 s⁻¹. Moreover, in the data set with glucosamine-6-phosphate [5], the “self-cleavage kobs at 10000 uM GlcN6P” value is less than 1e-05 s⁻¹.

C10A G43A: in the data set with glucosamine-6-phosphate [1], the “self-cleavage kobs at 40 uM GlcN6P” value is less than 1e-05 s⁻¹.

A6C C50G C70U: the “self-cleavage kobs at 40 uM GlcN6P” value in the data set with glucosamine-6-phosphate [1] is 0.000111 ± 3.3e-05 s⁻¹. Further, the “self-cleavage kobs at 640 uM GlcN6P” value in the data set with glucosamine-6-phosphate [3] came to 0.000347 ± 0.0001 s⁻¹. For the same variant, the “self-cleavage kobs at 2500 uM GlcN6P” value in the data set with glucosamine-6-phosphate [4] was determined as 0.000114 ± 2.7e-05 s⁻¹. In addition, the “self-cleavage kobs at 10000 uM GlcN6P” value in the data set with glucosamine-6-phosphate [5] turned out to be 0.000121 ± 2.9e-05 s⁻¹.

A33C G41C U57G: in the data set with glucosamine-6-phosphate [1], the “self-cleavage kobs at 40 uM GlcN6P” value is less than 1e-05 s⁻¹. The “self-cleavage kobs at 2500 uM GlcN6P” value in the data set with glucosamine-6-phosphate [4] is less than 1e-05 s⁻¹.

For the variant A6G G7U, in the data set with glucosamine-6-phosphate [1], the “self-cleavage kobs at 40 uM GlcN6P” value was less than 1e-05 s⁻¹. Further, in the data set with glucosamine-6-phosphate [2], the “self-cleavage kobs at 160 uM GlcN6P” value is less than 1e-05 s⁻¹. The “self-cleavage kobs at 2500 uM GlcN6P” value in the data set with glucosamine-6-phosphate [4] was less than 1e-05 s⁻¹. Besides, the “self-cleavage kobs at 10000 uM GlcN6P” value with glucosamine-6-phosphate [5] is less than 1e-05 s⁻¹.

Turning to U46A U57C, the “self-cleavage kobs at 40 uM GlcN6P” value with glucosamine-6-phosphate [1] was less than 1e-05 s⁻¹.

As for G9U A15U, the “self-cleavage kobs at 40 uM GlcN6P” value with glucosamine-6-phosphate [1] was less than 1e-05 s⁻¹. Also, in the data set with glucosamine-6-phosphate [2], the “self-cleavage kobs at 160 uM GlcN6P” value was less than 1e-05 s⁻¹. Moreover, the “self-cleavage kobs at 640 uM GlcN6P” value with glucosamine-6-phosphate [3] was less than 1e-05 s⁻¹.

On to A48U C50U, for which the “self-cleavage kobs at 40 uM GlcN6P” value with glucosamine-6-phosphate [1] is less than 1e-05 s⁻¹. Also, the “self-cleavage kobs at 160 uM GlcN6P” value with glucosamine-6-phosphate [2] is less than 1e-05 s⁻¹. The “self-cleavage kobs at 640 uM GlcN6P” value in the data set with glucosamine-6-phosphate [3] was less than 1e-05 s⁻¹. Also, the “self-cleavage kobs at 2500 uM GlcN6P” value with glucosamine-6-phosphate [4] was less than 1e-05 s⁻¹. The “self-cleavage kobs at 10000 uM GlcN6P” value in the data set with glucosamine-6-phosphate [5] was less than 1e-05 s⁻¹.

For the variant A14C G38C G44A G63U C70G, in the data set with glucosamine-6-phosphate [1], the “self-cleavage kobs at 40 uM GlcN6P” value was less than 1e-05 s⁻¹.

As for A15G C34A, the “self-cleavage kobs at 40 uM GlcN6P” value in the data set with glucosamine-6-phosphate [1] is less than 1e-05 s⁻¹. The “self-cleavage kobs at 160 uM GlcN6P” value with glucosamine-6-phosphate [2] is less than 1e-05 s⁻¹. Also, the “self-cleavage kobs at 640 uM GlcN6P” value with glucosamine-6-phosphate [3] was less than 1e-05 s⁻¹.

Regarding C16G G21U, the “self-cleavage kobs at 40 uM GlcN6P” value with glucosamine-6-phosphate [1] amounted to 0.00012 ± 5.7e-05 s⁻¹.

As to G32A C70U, the “self-cleavage kobs at 40 uM GlcN6P” value in the data set with glucosamine-6-phosphate [1] was found to be 6.22e-05 ± 6.9e-06 s⁻¹. For the same variant, the “self-cleavage kobs at 160 uM GlcN6P” value with glucosamine-6-phosphate [2] worked out at 0.000126 ± 2.7e-05 s⁻¹. The “self-cleavage kobs at 640 uM GlcN6P” value with glucosamine-6-phosphate [3] turned out to be 0.000627 ± 9.7e-05 s⁻¹. Further, the “self-cleavage kobs at 2500 uM GlcN6P” value with glucosamine-6-phosphate [4] turned out to be 0.000902 ± 0.00023 s⁻¹. The “self-cleavage kobs at 10000 uM GlcN6P” value with glucosamine-6-phosphate [5] stood at 0.00374 ± 0.00046 s⁻¹.

For the variant C8G C58G G60A, the “self-cleavage kobs at 40 uM GlcN6P” value in the data set with glucosamine-6-phosphate [1] is less than 1e-05 s⁻¹. Besides, in the data set with glucosamine-6-phosphate [5], the “self-cleavage kobs at 10000 uM GlcN6P” value is less than 1e-05 s⁻¹.

On to G60U C61G, for which the “self-cleavage kobs at 40 uM GlcN6P” value with glucosamine-6-phosphate [1] was less than 1e-05 s⁻¹. The “self-cleavage kobs at 2500 uM GlcN6P” value with glucosamine-6-phosphate [4] was less than 1e-05 s⁻¹. Further, the “self-cleavage kobs at 10000 uM GlcN6P” value with glucosamine-6-phosphate [5] was less than 1e-05 s⁻¹.

With G9A A42C, the “self-cleavage kobs at 40 uM GlcN6P” value with glucosamine-6-phosphate [1] was less than 1e-05 s⁻¹. For the same variant, in the data set with glucosamine-6-phosphate [2], the “self-cleavage kobs at 160 uM GlcN6P” value was less than 1e-05 s⁻¹. Also, the “self-cleavage kobs at 640 uM GlcN6P” value with glucosamine-6-phosphate [3] was less than 1e-05 s⁻¹. The “self-cleavage kobs at 2500 uM GlcN6P” value with glucosamine-6-phosphate [4] is less than 1e-05 s⁻¹.

For the variant A6C G35A, the “self-cleavage kobs at 40 uM GlcN6P” value in the data set with glucosamine-6-phosphate [1] is less than 1e-05 s⁻¹. The “self-cleavage kobs at 160 uM GlcN6P” value with glucosamine-6-phosphate [2] is less than 1e-05 s⁻¹. Moreover, in the data set with glucosamine-6-phosphate [3], the “self-cleavage kobs at 640 uM GlcN6P” value was less than 1e-05 s⁻¹. Further, the “self-cleavage kobs at 2500 uM GlcN6P” value in the data set with glucosamine-6-phosphate [4] is less than 1e-05 s⁻¹. The “self-cleavage kobs at 10000 uM GlcN6P” value with glucosamine-6-phosphate [5] is less than 1e-05 s⁻¹.
